Measured values reported in US20060239990A1, “Protein Arginine N-Methyltransferase 2 (PRMT-2)” (priority 2003, published 2006).

How the values were obtained:
NF-κB = assay: κB luciferase reporter in MEFs; assay type: cell-based, mouse; details: PRMT2−/− MEFs complemented by transfection
Procedure: Cell culture, transfection, and reporter gene assays. The E1A-transformed, human kidney cell line, 293, and NIH-3T3 cells were maintained in Dulbecco's Modified Eagle Medium (DMEM) supplemented with 10% fetal calf serum and penicillin-streptomycin at 37° C. in 5% carbon dioxide in tissue culture grade Petri dishes. PRMT-2−/− mouse embryo fibroblasts (MEFs) and wild type MEFs were prepared from day 13.5 embryos and maintained in DMEM supplemented with 10% fetal calf serum. MEFs at passage 4 were used in this experiment. Lipofectamine Plus™ reagent (Boehringer Mannheim) was used to transfect both 293 and NIH-3T3 cells according to directions from the manufacturer. […] TNF-α stimulation of cells was done using recombinant TNF-α (200 U/ml) for 12 hours. Transfected cells were harvested at 36 hours, and CAT activity was assayed on 10 to 100 μg of protein from whole cell extracts. CAT assays were performed essentially as described in Leung, K. & Nabel, G. J. Nature 333, 776-778 (1988). […] Luciferase activity was analyzed by Dual-Luciferase Reporter Assay System (Promega).
To determine whether similar effects would be observed in non-transformed cell lines with physiological levels of protein, NF-κB inducibility was analyzed in mouse embryonic fibroblasts (MEFs) derived from PRMT2 null mice (T. Y. et al., manuscript in preparation). […]

RB = target: T1, RB (Homo sapiens, UniProt P06400); assay: In vitro binding assay with GST-RB; details: S35-labeled in vitro translated protein
T1 construct: coding region of RB cDNA was subcloned into pGEX-6P (Amersham/Pharmacia) for generation of GST-RB; made in house
T1 sequence (P06400 1-928): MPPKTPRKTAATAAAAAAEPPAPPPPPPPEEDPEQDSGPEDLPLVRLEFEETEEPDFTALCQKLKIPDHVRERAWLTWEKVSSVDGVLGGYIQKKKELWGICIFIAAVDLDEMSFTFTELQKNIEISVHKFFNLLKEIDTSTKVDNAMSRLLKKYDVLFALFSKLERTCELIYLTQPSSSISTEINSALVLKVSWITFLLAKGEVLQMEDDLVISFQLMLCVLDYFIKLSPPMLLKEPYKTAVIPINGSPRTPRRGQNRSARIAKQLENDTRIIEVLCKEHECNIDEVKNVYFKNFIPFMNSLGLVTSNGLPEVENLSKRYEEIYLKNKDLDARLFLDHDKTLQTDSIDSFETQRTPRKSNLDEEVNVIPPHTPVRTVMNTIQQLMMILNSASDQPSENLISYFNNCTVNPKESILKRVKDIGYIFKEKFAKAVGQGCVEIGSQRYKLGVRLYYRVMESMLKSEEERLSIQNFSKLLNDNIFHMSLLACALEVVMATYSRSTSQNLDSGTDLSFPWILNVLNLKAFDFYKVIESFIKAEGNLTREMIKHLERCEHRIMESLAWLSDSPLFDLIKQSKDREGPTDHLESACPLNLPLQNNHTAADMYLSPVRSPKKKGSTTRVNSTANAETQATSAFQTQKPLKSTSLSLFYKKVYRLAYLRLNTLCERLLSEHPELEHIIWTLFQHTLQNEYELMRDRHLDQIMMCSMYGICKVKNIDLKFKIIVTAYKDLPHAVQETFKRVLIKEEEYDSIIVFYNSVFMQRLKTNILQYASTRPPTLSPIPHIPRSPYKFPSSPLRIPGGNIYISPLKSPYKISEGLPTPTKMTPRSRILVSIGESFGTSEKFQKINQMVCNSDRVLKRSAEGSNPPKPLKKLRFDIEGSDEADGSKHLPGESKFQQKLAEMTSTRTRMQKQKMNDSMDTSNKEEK
Procedure: The crude cell lysate of the GST-fusion proteins was prepared and purified according to the manufacture's protocol (Amersham/Pharmacia). [^35S]-methionine-labeled protein was produced by in vitro transcription/translation using the TNT T7-coupled reticulocyte lysate system (Promega). [^35S]-methionine-labeled protein and GST-fusion protein bound to glutathione sepharose 4B beads were incubated in 500 μl of HNE buffer (50 mM Hepes, pH 7.8, 150 mM NaCl, 1 mM EDTA, 1 mM DTT, 1% NP40, and 1× protease inhibitor mix (Complete: Roche)) at 4° C. for 1 hour. Beads were washed four times with HNE buffer, and then analyzed on an SDS-PAGE gradient gel (4-15%). For the detection of endogenous PRMT-2 interaction with RB, MEFs were lysed with WCL buffer (50 mM Hepes, pH 7.8, 400 mM NaCl, 2 mM EDTA, 1 mM DTT, 0.2% NP40, 10% Glycerol, 20 mM α-glycerophosphate, 5 mM NaF, 0.1 mM NaVO4, and 1× protease inhibitor mix). Then, 1 mg of whole cell extracts were incubated with HNE buffer without DTT and 3 μg of antibodies as indicated. The immune complexes were isolated using protein G beads, and washed four times with HNE buffer. The precipitated protein was boiled with SDS-loading buffer and resolved on SDS-PAGE. For immunoprecipitation of HA-tagged protein, transfected cells were lysed with RIPA buffer (phosphate buffer saline containing 1% NP40, 0.5% sodium deoxycholate, 0.1% SDS, and 1× Complete), and 100 μg of whole cell lysates were immunoprecipitated with anti-HA antibodies and washed in RIPA buffer. Western blot analysis was performed as described in Tanner et al. (1998). Circ Res, 82, 396-403.
To test whether PRMT family members interact with RB, S^35-labeled in vitro translated PRMT1, PRMT2, PRMT3, and PRMT4 (CARM1) were incubated with GST-RB fusion proteins or control GST, and co-precipitated labeled proteins were resolved by SDS-PAGE. […] An equal amount of GST-RB and GST were loaded in each lane, verified by Coomassie staining (FIG. 8B).

B1: PRMT2: human PRMT-2 polypeptide, SEQ ID NO:2, expressed from pVR1012 vector with HA-tag (protein, listed as Homo sapiens)
chain: MATSGDCPRSESQGEEPAECSEAGLLQEGVQPEEFVAIADYAATDETQLSFLRGEKILILRQTTADWWWGERAGCCGYIPANHVGKHVDEYDPEDTWQDEEYFGSYGTLKLHLEMLADQPRTTKYHSVILQNKESLTDKVILDVGCGTGIISLFCAHYARPRAVYAVEASEMAQHTGQLVLQNGFADIITVYQQKVEDVVLPEKVDVLVSEWMGTCLLFEFMIESILYARDAWLKEDGVIWPTMAALHLVPCSADKDYRSKVLFWDNAYEFNLSALKSLAVKEFFSKPKYNHILKPEDCLSEPCTILQLDMRTVQISDLETLRGELRFDIRKAGTLHGFTAWFSVHFQSLQEGQPPQVLSTGPFHPTTHWKQTLFMMDDPVPVHTGDVVTGSVVLQRNPVWRRHMSVALSWAVTSRQDPTSQKVGEKVFPIWR
modifications: HA tag
NF-κB induction by TNF-α (NF-κB): completely abolished NF-κB induction by TNF-α
binding to RB (RB): directly interacts with RB
